Common to all, as to test: RIA, competition with 125I-Ang-(1-12)
Test [1] addresses T1, purified human angiotensinogen (AGT) protein (human, UniProt P01019 25-476).
T1 construct: also called human AGT
T1 sequence (looked up): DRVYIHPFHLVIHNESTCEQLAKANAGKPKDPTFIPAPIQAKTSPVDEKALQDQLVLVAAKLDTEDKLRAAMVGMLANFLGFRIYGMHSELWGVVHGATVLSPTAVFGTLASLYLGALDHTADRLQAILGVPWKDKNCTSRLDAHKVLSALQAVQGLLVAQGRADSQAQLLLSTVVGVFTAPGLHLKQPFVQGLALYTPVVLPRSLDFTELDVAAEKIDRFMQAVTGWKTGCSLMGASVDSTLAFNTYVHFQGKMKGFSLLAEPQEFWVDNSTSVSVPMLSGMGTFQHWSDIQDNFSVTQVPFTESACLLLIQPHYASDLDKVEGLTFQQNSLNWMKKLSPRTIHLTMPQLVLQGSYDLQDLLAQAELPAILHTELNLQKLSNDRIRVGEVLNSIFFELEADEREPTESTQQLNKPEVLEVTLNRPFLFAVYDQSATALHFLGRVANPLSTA
The method, then:
(§1) h-Ang-(1-12) Specificity and Cross-reactivity Assays: For specificity, a synthetic non-radiolabeled h-Ang-(1-12) standard (purity≥98%) was used. Briefly, 200 μL of the RIA buffer (50 mM PBS, 25 mM EDTA, 0.5% triton X-100, 0.05% sodium azide and 0.5% BSA, pH 7.4) containing 50 μL of mAb (1:2,000 dilution of IgG concentration 1.3 mg/mL), 50 μL of 125I-Ang-(1-12) [6-8 fmoles/tube, purity>99%] and 50 μL of different concentrations of non-radiolabeled human Ang-(1-12) peptide (0 to 10,000 fmol/0.2 mL RIA tube) were combined and the RIA tubes were incubated overnight for 20-22 hours at 4° C. At the end of incubation period, 50 μL of 1% γ-globulin were added, mixed, and the bound/free (B/Bo) forms of h-Ang-(1-12) were then separated by precipitating the bound (B) fraction with 200 μL of 23% polyethylene glycol (PEG). The bound and unbound (Bo) traces were separated by centrifuging the tubes at 3,000 rpm for 30 min at 4° C. The radioactivity corresponding to the antibody-bound antigen in the precipitate were measured in a PerkinElmer Wizard2 Gamma Counter. The binding data were analyzed and graphed using a statistical program (GraphPad Prism 8). To examine the cross-reactivity of the mAb with human and rat AGT or AGT-derived angiotensin peptides, several fold higher concentrations (AGT up to 10,000 fmol and angiotensin peptides up to 5,000 fmol) were used. Briefly, in a total of 200 μL of RIA buffer we added 50 μL of h-Ang-(1-12) mAb (1:2,000 dilution), 50 μL of ¹²⁵I-Ang-(1-12) and 50 μL of non-radiolabeled angiotensin peptides [Ang I, ([…]; SEQ ID NO:20); Ang-(1-9), ([…]; SEQ ID NO:23); Ang II, ([…]; SEQ ID NO:21); Ang-(1-7), (DRVYIHP; SEQ ID NO:22) and rat Ang-(1-12), ([…]; SEQ ID NO:24)] or purified AGT protein (10,000 fmol per RIA tube) and after mixing the contents, the RIA tubes were incubated overnight (20-22 hours at 4° C.) and processed as described above.

The target of test [2] is T2, purified rat angiotensinogen (AGT) protein (rat, UniProt P01015 25-477).
T2 construct: also called rat AGT
T2 sequence (looked up): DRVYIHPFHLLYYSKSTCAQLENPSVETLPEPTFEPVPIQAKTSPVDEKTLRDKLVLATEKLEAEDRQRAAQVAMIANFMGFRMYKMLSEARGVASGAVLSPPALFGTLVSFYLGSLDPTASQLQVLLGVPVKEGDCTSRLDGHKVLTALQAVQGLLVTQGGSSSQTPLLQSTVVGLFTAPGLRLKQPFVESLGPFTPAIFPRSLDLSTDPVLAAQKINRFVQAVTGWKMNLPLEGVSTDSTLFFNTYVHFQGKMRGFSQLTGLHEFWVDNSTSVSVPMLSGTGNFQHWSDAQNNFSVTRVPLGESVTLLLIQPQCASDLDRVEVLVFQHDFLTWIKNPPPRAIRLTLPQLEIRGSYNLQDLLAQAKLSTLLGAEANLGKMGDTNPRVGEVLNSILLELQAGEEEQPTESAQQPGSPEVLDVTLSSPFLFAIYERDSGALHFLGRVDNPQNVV
The method, then: as §1

Another test has as its target Ang-(1-9). Here is the method: as §1
A further test deals with T3, Angiotensin-(1-7).
T3 construct: also called Ang-(1-7)
T3 peptide: DRVYIHP
The method, then:
as §1

B1: h-Ang-(1-12) monoclonal antibody, Clone# 14B3 (Protein L purified mAb IgG) (antibody, V domains shown)
VH: DVQLQESGPGLVKPSQSLSLTCTVNGYSITSDFAWNWIRQFPGNKLEWMGYISYSGNTYYNPSLKSRISITRDTSKNQFFLQLNSVTTEDTATYYCARGSYYFDYWGQGTTLTVSS
VL: DIVMSQSPSSLAVSAGEKVTMSCKSSQSLLNSRTRKNYLAWYQQKPGQSPKLLIYWASTRESGVPDRFTGSGSGTDFTLTISSVQAEDLAVYYCKQSYNLRTFGGGTKLEIK
notes: also called Ang-(1-12)-mAb; h-Ang-(1-12) mAb
Turning to B1, the binding result in test [1] is “no binding (tested: AGT up to 10,000 fmol)”; in test [2] it was “no binding (tested: AGT up to 10,000 fmol)”; in the test with Ang-(1-9), “no binding (tested: angiotensin peptides up to 5,000 fmol)”; in the test with Angiotensin-(1-7), “no binding (tested: angiotensin peptides up to 5,000 fmol)”.

The record behind these values is patent US20220306756A1 (WAKE FOREST UNIVERSITY HEALTH SCIENCES, published 2022).
